cAMP activity in Rinm cells, EC50 data for 1 substance are collected here from US20090325873A1, “HUMAN GLP-1 MIMETIBODIES, COMPOSITIONS, METHODS AND USES” (CENTOCOR, INC., priority 2006, published 2009).

In this experiment the target is GLP-1R on Rinm cells. Put plainly: cell-based or functional assay.

“GLP-1 peptide (from UniProt P01275 98-127)” returned a cAMP activity in Rinm cells, EC50 of 0.4 nM.
